From patent publication US20180030149A1 (AVEO PHARMACEUTICALS, published 2018) come the findings set out here.

In the assay the target is T1, recombinant human ErbB3 monomeric protein (cleaved rhErbB3) (human, UniProt P21860 20-643, limits assumed).
T1 construct: Monomer made by protease cleavage of the Fc fusion; also called Monomeric ErbB3
In words: SPR Biacore 37 C; supernatant antibody captured on anti-human Fc, cleaved rhErbB3 injected. How it is done:
The analyses were performed at 37° C. using PBS (Invitrogen, Catalog No. 14040-133) containing 0.05% surfactant P20 (Biacore, Catalog No. BR-1000-54) as running buffer.
The antibodies were captured in individual flow cells at a flow rate of […]. Injection time was varied for each antibody to yield an Rₘₐₓ between 30 and 60 RU. […] The dissociation phase was monitored for up to 1200 seconds. The surface was then regenerated with two 60 second injections of Glycine pH 2.25 (made from Glycine pH 2.0 (Biacore, Catalog No. BR-1003-55) and pH 2.5 (Biacore, Catalog No. BR-1003-56)) at […].
Kinetic parameters were determined using the kinetic function of the BIAevaluation software (Biacore) with double reference subtraction. Kinetic parameters for each antibody, kₐ (association rate constant), kd (dissociation rate constant) and KD (equilibrium dissociation constant) were determined.
For orientation: In SPR one partner is held on a chip, and binding of the other changes the refractive index at the surface.

B1: Sh24C05-45 (antibody, human IgG1, kappa, V domains shown)
VH: EVQLVESGGGLVKPGGSLRLSCAASGFTFSDYAMSWVRQAPGKGLEWVSTISDGGTYTYYPDNVKGRFTISRDNAKNSLYLQMNSLRAEDTAVYYCAREWGDYDGFDYWGQGTLVTVSS
VL: DIQMTQSPSSLSASVGDRVTITCRASQEISGYLSWYQQKPGKAPKLLIYAASTLDSGVPSRFSGSGSGTDFTLTISSLQPEDFATYYCLQYDSYPYTFGQGTKLEIKR
notes: Humanized, human IgG1/kappa
In general, Kd refers to the equilibrium constant for the complex coming apart. The koff is a measure of how fast the partners let go of each other. One may read the kon as the rate constant with which the complex forms. For the molecule B1, the Kd was 707 pM, the koff is 0.00606 s⁻¹ and the kon is 8.57e+06 M⁻¹ s⁻¹.

B2: Sh24C05-14 (antibody, human IgG1, kappa)
heavy: not shown
light: DIQMTQSPSSLSASVGDRVTITCRASQEISGYLSWLQQKPGGAIKRLIYAASTLDSGVPSRFSGSGSGSDYTLTISSLQPEDFATYYCLQYDSYPYTFGQGTKLEIKRTVAAPSVFIFPPSDEQLKSGTASVVCLLNNFYPREAKVQWKVDNALQSGNSQESVTEQDSKDSTYSLSSTLTLSKADYEKHKVYACEVTHQGLSSPVTKSFNRGEC
notes: Humanized, human IgG1/kappa
For the molecule B2, the Kd is 173 pM, the koff stood at 0.000498 s⁻¹ and the kon was 2.88e+06 M⁻¹ s⁻¹.

B3: Sh24C05-23 (antibody, human IgG1, kappa, V domains shown)
VH: QVQLVESGGGVVQPGRSLRLSCAASGFTFSDYAMSWVRQAPGKGLEWVATISDGGTYTYYPDNVKGRFTISRDNSKNTLYLQMSSLRAEDTAVYYCAREWGDYDGFDYWGQGTLVTVSS
VL: DIQMTQSPSSLSASVGDRVTITCRASQEISGYLSWFQQKPGKAPKSLIYAASTLDSGVPSRFSGSGSGTDFTLTISSLQPEDFATYYCLQYDSYPYTFGQGTKLEIKR
notes: Humanized, human IgG1/kappa
With B3, the Kd was 263 pM, the koff was determined as 0.000721 s⁻¹ and the kon amounted to 2.79e+06 M⁻¹ s⁻¹.

B4: Sh24C05-19 (antibody, human IgG1, kappa, V domains shown)
VH: QVQLVESGGGLVKPGGSLRLSCAASGFTFSDYAMSWIRQAPGKGLEWVSTISDGGTYTYYPDNVKGRFTISRDNAKNSLYLQMNSLRAEDTAVYYCAREWGDYDGFDYWGQGTLVTVSS
VL: DIQMTQSPSSLSASVGDRVTITCRASQEISGYLSWLQQKPGGAIKRLIYAASTLDSGVPSRFSGSGSGSDYTLTISSLQPEDFATYYCLQYDSYPYTFGQGTKLEIKR
notes: Humanized, human IgG1/kappa
For B4, the Kd was 85.5 pM, the koff was found to be 0.000255 s⁻¹ and the kon was found to be 3e+06 M⁻¹ s⁻¹.

B5: Sh24C05-16 (antibody, human IgG1, kappa, V domains shown)
VH: EVQLLESGGGLVQPGGSLRLSCAASGFTFSDYAMSWVRQAPGKGLEWVSTISDGGTYTYYPDNVKGRFTISRDNSKNTLYLQMNSLRAEDTAVYYCAREWGDYDGFDYWGQGTLVTVSS
VL: DIQMTQSPSSLSASVGDRVTITCRASQEISGYLSWLQQKPGGAIKRLIYAASTLDSGVPSRFSGSGSGSDYTLTISSLQPEDFATYYCLQYDSYPYTFGQGTKLEIKR
notes: Humanized, human IgG1/kappa
Regarding B5, the Kd was found to be 147 pM, the koff came out at 0.000404 s⁻¹ and the kon worked out at 2.75e+06 M⁻¹ s⁻¹.

B6: Sh24C05-24 (antibody, human IgG1, kappa)
heavy: not shown
light: DIQMTQSPSSLSASVGDRVTITCRASQEISGYLSWFQQKPGKAPKSLIYAASTLDSGVPSRFSGSGSGTDFTLTISSLQPEDFATYYCLQYDSYPYTFGQGTKLEIKRTVAAPSVFIFPPSDEQLKSGTASVVCLLNNFYPREAKVQWKVDNALQSGNSQESVTEQDSKDSTYSLSSTLTLSKADYEKHKVYACEVTHQGLSSPVTKSFNRGEC
notes: Humanized, human IgG1/kappa
For B6, the Kd was 218 pM, the koff was 0.000628 s⁻¹ and the kon turned out to be 2.9e+06 M⁻¹ s⁻¹.

B7: Sh24C05-29 (antibody, human IgG1, kappa, V domains shown)
VH: QVQLVESGGGVVQPGRSLRLSCAASGFTFSDYAMSWVRQAPGKGLEWVATISDGGTYTYYPDNVKGRFTISRDNSKNTLYLQMSSLRAEDTAVYYCAREWGDYDGFDYWGQGTLVTVSS
VL: DIQMTQSPSSLSASVGDRVTITCRASQEISGYLSWYQQKPGKAPKRLIYAASTLDSGVPSRFSGSGSGTEFTLTISSLQPEDFATYYCLQYDSYPYTFGQGTKLEIKR
notes: Humanized, human IgG1/kappa
In the case of B7, the Kd was determined as 182 pM, the koff is 0.000588 s⁻¹ and the kon is 3.25e+06 M⁻¹ s⁻¹.

B8: Sh24C05-18 (antibody, human IgG1, kappa)
heavy: not shown
light: DIQMTQSPSSLSASVGDRVTITCRASQEISGYLSWLQQKPGGAIKRLIYAASTLDSGVPSRFSGSGSGSDYTLTISSLQPEDFATYYCLQYDSYPYTFGQGTKLEIKRTVAAPSVFIFPPSDEQLKSGTASVVCLLNNFYPREAKVQWKVDNALQSGNSQESVTEQDSKDSTYSLSSTLTLSKADYEKHKVYACEVTHQGLSSPVTKSFNRGEC
notes: Humanized, human IgG1/kappa
For the molecule B8, the Kd was 161 pM, the koff is 0.000463 s⁻¹ and the kon came out at 2.88e+06 M⁻¹ s⁻¹.

B9: Sh24C05-21 (antibody, human IgG1, kappa, V domains shown)
VH: EVQLVESGGGLVKPGGSLRLSCAASGFTFSDYAMSWVRQAPGKGLEWVSTISDGGTYTYYPDNVKGRFTISRDNAKNSLYLQMNSLRAEDTAVYYCAREWGDYDGFDYWGQGTLVTVSS
VL: DIQMTQSPSSLSASVGDRVTITCRASQEISGYLSWFQQKPGKAPKSLIYAASTLDSGVPSRFSGSGSGTDFTLTISSLQPEDFATYYCLQYDSYPYTFGQGTKLEIKR
notes: Humanized, human IgG1/kappa
B9: the Kd amounted to 220 pM, the koff is 0.000662 s⁻¹ and the kon stood at 3.11e+06 M⁻¹ s⁻¹.

B10: Sh24C05-28 (antibody, human IgG1, kappa, V domains shown)
VH: EVQLLESGGGLVQPGGSLRLSCAASGFTFSDYAMSWVRQAPGKGLEWVSTISDGGTYTYYPDNVKGRFTISRDNSKNTLYLQMNSLRAEDTAVYYCAREWGDYDGFDYWGQGTLVTVSS
VL: DIQMTQSPSSLSASVGDRVTITCRASQEISGYLSWYQQKPGKAPKRLIYAASTLDSGVPSRFSGSGSGTEFTLTISSLQPEDFATYYCLQYDSYPYTFGQGTKLEIKR
notes: Humanized, human IgG1/kappa
For B10, the Kd was 189 pM, the koff was determined as 0.000614 s⁻¹ and the kon amounted to 3.26e+06 M⁻¹ s⁻¹.

B11: Sh24C05-26 (antibody, human IgG1, kappa)
heavy: not shown
light: DIQMTQSPSSLSASVGDRVTITCRASQEISGYLSWYQQKPGKAPKRLIYAASTLDSGVPSRFSGSGSGTEFTLTISSLQPEDFATYYCLQYDSYPYTFGQGTKLEIKRTVAAPSVFIFPPSDEQLKSGTASVVCLLNNFYPREAKVQWKVDNALQSGNSQESVTEQDSKDSTYSLSSTLTLSKADYEKHKVYACEVTHQGLSSPVTKSFNRGEC
notes: Humanized, human IgG1/kappa
For B11, the Kd was 220 pM, the koff was found to be 0.000739 s⁻¹ and the kon is 3.36e+06 M⁻¹ s⁻¹.

B12: Sh24C05-22 (antibody, human IgG1, kappa, V domains shown)
VH: EVQLLESGGGLVQPGGSLRLSCAASGFTFSDYAMSWVRQAPGKGLEWVSTISDGGTYTYYPDNVKGRFTISRDNSKNTLYLQMNSLRAEDTAVYYCAREWGDYDGFDYWGQGTLVTVSS
VL: DIQMTQSPSSLSASVGDRVTITCRASQEISGYLSWFQQKPGKAPKSLIYAASTLDSGVPSRFSGSGSGTDFTLTISSLQPEDFATYYCLQYDSYPYTFGQGTKLEIKR
notes: Humanized, human IgG1/kappa
B12: the Kd came to 216 pM, the koff came out at 0.000601 s⁻¹ and the kon was determined as 2.79e+06 M⁻¹ s⁻¹.

B13: Sh24C05-27 (antibody, human IgG1, kappa, V domains shown)
VH: EVQLVESGGGLVKPGGSLRLSCAASGFTFSDYAMSWVRQAPGKGLEWVSTISDGGTYTYYPDNVKGRFTISRDNAKNSLYLQMNSLRAEDTAVYYCAREWGDYDGFDYWGQGTLVTVSS
VL: DIQMTQSPSSLSASVGDRVTITCRASQEISGYLSWYQQKPGKAPKRLIYAASTLDSGVPSRFSGSGSGTEFTLTISSLQPEDFATYYCLQYDSYPYTFGQGTKLEIKR
notes: Humanized, human IgG1/kappa
For B13, the dissociation constant Kd came to 240 pM, the koff worked out at 0.000798 s⁻¹ and the kon was determined as 3.34e+06 M⁻¹ s⁻¹.

B14: Sh24C05-15 (antibody, human IgG1, kappa, V domains shown)
VH: EVQLVESGGGLVKPGGSLRLSCAASGFTFSDYAMSWVRQAPGKGLEWVSTISDGGTYTYYPDNVKGRFTISRDNAKNSLYLQMNSLRAEDTAVYYCAREWGDYDGFDYWGQGTLVTVSS
VL: DIQMTQSPSSLSASVGDRVTITCRASQEISGYLSWLQQKPGGAIKRLIYAASTLDSGVPSRFSGSGSGSDYTLTISSLQPEDFATYYCLQYDSYPYTFGQGTKLEIKR
notes: Humanized, human IgG1/kappa
As for B14, the dissociation constant (Kd) turned out to be 187 pM, the koff came to 0.000499 s⁻¹ and the kon worked out at 2.67e+06 M⁻¹ s⁻¹.

B15: Sh24C05-20 (antibody, human IgG1, kappa)
heavy: not shown
light: DIQMTQSPSSLSASVGDRVTITCRASQEISGYLSWFQQKPGKAPKSLIYAASTLDSGVPSRFSGSGSGTDFTLTISSLQPEDFATYYCLQYDSYPYTFGQGTKLEIKRTVAAPSVFIFPPSDEQLKSGTASVVCLLNNFYPREAKVQWKVDNALQSGNSQESVTEQDSKDSTYSLSSTLTLSKADYEKHKVYACEVTHQGLSSPVTKSFNRGEC
notes: Humanized, human IgG1/kappa
For the molecule B15, the Kd turned out to be 221 pM, the koff came to 0.000591 s⁻¹ and the kon was 2.67e+06 M⁻¹ s⁻¹.

B16: Sh24C05-33 (antibody, human IgG1, kappa, V domains shown)
VH: EVQLVESGGGLVKPGGSLRLSCAASGFTFSDYAMSWVRQAPGKGLEWVSTISDGGTYTYYPDNVKGRFTISRDNAKNSLYLQMNSLRAEDTAVYYCAREWGDYDGFDYWGQGTLVTVSS
VL: DIQMTQSPSSLSASVGDRVTITCRASQEISGYLSWYQQKPGKAPKLLIYAASTLDSGVPSRFSGSGSGTDFTFTISSLQPEDIATYYCLQYDSYPYTFGQGTKLEIKR
notes: Humanized, human IgG1/kappa
B16: the Kd is 1080 pM, the koff amounted to 0.00433 s⁻¹ and the kon was 4.02e+06 M⁻¹ s⁻¹.

B17: Sh24C05-30 (antibody, human IgG1, kappa)
heavy: not shown
light: DIQMTQSPSSLSASVGDRVTITCRASQEISGYLSWYQQKPGKAPKRLIYAASTLDSGVPSRFSGSGSGTEFTLTISSLQPEDFATYYCLQYDSYPYTFGQGTKLEIKRTVAAPSVFIFPPSDEQLKSGTASVVCLLNNFYPREAKVQWKVDNALQSGNSQESVTEQDSKDSTYSLSSTLTLSKADYEKHKVYACEVTHQGLSSPVTKSFNRGEC
notes: Humanized, human IgG1/kappa
Regarding B17, the Kd stood at 190 pM, the koff came to 0.000787 s⁻¹ and the kon stood at 4.48e+06 M⁻¹ s⁻¹.
